Test results as given in article PMC7137382, “Structure of the Mycobacterium smegmatis α-maltose-1-phosphate synthase GlgM” (Acta Crystallographica. Section F, Structural Biology …, 2020).

Target: the molecule itself
Test: SEC; Superdex 200 10/300 GL, 50 mM bis-Tris pH 6.0, 5 mM MgCl2, 100 mM NaCl

B1: α-maltose-1-phosphate synthase GlgM from Mycobacterium smegmatis (enzyme, Mycobacterium smegmatis mc2155)
chain: MRVAMMTREYPPEVYGGAGVHVTELVAQLRKLCDVDVHCMGAPRDGAYVAHPDPTLRGANAALTMLSADLNMVNNAEAATVVHSHTWYTGLAGHLASLLYGVPHVLTAHSLEPLRPWKAEQLGGGYQVSSWVERTAVEAADAVIAVSSGMRDDVLRTYPALDPDRVHVVRNGIDTTVWYPAEPGPDESVLAELGVDLNRPIVAFVGRITRQKGVAHLVAAAHRFAPDVQLVLCAGAPDTPQIAEEVSSAVQQLAQARTGVFWVREMLPTHKIREILSAATVFVCPSVYEPLGIVNLEAMACATAVVASDVGGIPEVVADGRTGLLVHYDANDTEAYEARLAEAVNSLVADPDRAREYGVAGRERCIEEFSWAHIAEQTLEIYRKVSA
notes: GlgM (glgM gene, MSMEG_5080) from M. smegmatis mc2155, synthesised with codon usage for E. coli; A TEV cleavage site lies between the N-terminal 6×His tag and the protein; also called M. smegmatis GlgM; source: E. coli BL21 Star, purified (HisTrap FF, imidazole gradient); not shown: 6×His, N-terminal, kept
**Q.** How did the “stoichiometry N” value turn out when B1 was run?
**A.** 2
